Here are results for 3 molecules from US9750814B2, “Polypeptides to inhibit epstein barr viral protein BHRF1 and B cell lymphoma family proteins” (priority 2014, dated 2017).

Data set [1] is classed as physicochemical. As to the method:
CD spectra were recorded with a Model 420 spectrometer (AVIV Biomedical) or a J-1500 Circular Dichroism Spectrometer (JASCO). Unless stated otherwise, proteins were at 20 μM in PBS and data were collected at 25° C.

The test system of the next data set is Bfl-1-dependent MEF line. Briefly: Long-term survival (colony) assay, Bfl-1-dependent MEFs. The data set is classed as cell-based, mouse. The settings on record: seven day colony survival, doxycycline-induced expression. The text has this:
(§1) Mouse embryonic fibroblasts were generated from E13-E14.5 embryos derived from CreERT2/Bcl-x^fl/fl/Mcl-I^fl/fl C57BL/6 mice (Kelly et al., 2014) and immortalized (at passage 2-4) with SV40 large T antigen. Retroviral expression constructs in the pMIG vector (Murine Stem Cell Virus-IRES-GFP) expressing each FLAG-tagged pro-survival protein were transiently transfected using LIPOFECTAMINE™ (Invitrogen), into Phoenix ecotropic packaging cells. Filtered virus-containing supernatants were used to infect the MEFs by spin inoculation as previously described (Lee et al., 2008). Cells stably expressing each pro-survival protein were selected by sorting GFP^+ve cells 24 hours after spin inoculation and protein expression verified by Western blotting using an anti-FLAG antibody. Following verification of exogenous pro-survival protein expression, each cell line was treated with 1 μM Tamoxifen (Sigma-Aldrich) to enable deletion of endogenous Mcl-1 and Bcl-xL. Deletion of endogenous Mcl-1 and Bcl-xL was shown by Western blotting using anti-Mcl-1 (Rockland Clone, 600-401-394) and anti-Bcl-xL (BD Transduction Laboratories Clone 44/Bcl-x) antibodies. Cells were maintained in DME Kelso medium supplemented with 10% (v/v) fetal bovine serum, 250 mM L-asparagine and […] 2-mercaptoethanol.
(§2) Inducible αMCL1 and αBFL1 constructs were generated in a lentiviral vector described in Aubrey et al. (2015). […]

A further data set concerns colon cancer cell lines. In words: Long-term survival assay, colon cancer cell lines. Type of data set: cell-based, human. The method, then:
Inducible αMCL1 and αBFL1 constructs were generated in a lentiviral vector described in Aubrey et al. (2015). Ligand expression is linked via the T2A peptide to mCherry™ fluorescent reporter protein. […] Viral supernatants were then filtered prior to target cell transduction. […] For infection of MEFs and colon cancer cell lines, equal volume of virus-containing supernatant was added to target cells pre-incubated with 10 ng/μL polybrene, and centrifuged at 2500 rpm for 2 hours at 32° C. Following spin inoculation, cells were then incubated overnight at 37° C. Cells expressing the doxycycline-inducible constructs were then selected by sorting mCherry^+ve cells. MEFs were maintained in DME Kelso medium supplemented with 10% (v/v) FBS, 250 mM L-asparagine and […] 2-mercaptoethanol. Colon cancer cell lines were maintained in DMEM/F-12 supplemented with 10% (v/v) FBS.
MEF and colon cancers were seeded in 6-well tissue culture plates in 2 mL culture media at 150 cells per mL. The next day and every 48 hours following, doxycycline was added at a final concentration of 1 μg/mL to each well, while nothing was added to control wells.

The next data set addresses T1, Mcl-1 (Homo sapiens, UniProt Q07820).
T1 construct: Mcl-1 a.a; made in house; host or cells: E. coli BL21* (DE3)
Briefly: Bio-layer interferometry (BLI), immobilized Mcl-1. Type of data set: binding. Conditions: BLI titrations. The source says: 11-175 (NP_065129.1), Mcl-1 a.a. […] For later BLI analysis, Bcl-B and Bfl-1 were genetically fused to C-terminal maltose-binding-protein with an avi-6his tag for improved solution properties. Codon usage was optimized for E. coli expression. […] The genes for individually-tested designed proteins were assembled from oligos (Hoover and Lubkowski, 2002) and cloned into pET29b (NdeI-XhoI sites) with C-terminal 6his tags for purification from E. coli, or cloned into PETCON (NdeI-XhoI sites; (Fleishman et al., 2011)) for yeast surface expression. Alternative tags were added using PCR methods. Point mutations were made by overlapping PCR (Procko et al., 2013). Error-prone PCR with an average error rate of 1.3 amino acid substitutions per clone used GeneMorph II Random Mutagenesis (Agilent Technologies).
Purified avi-6his-tagged ligands (20 μM) in reaction buffer (250 mM potassium glutamate, 20 mM Tris-Cl [pH 7.5], 50 mM bicine [pH 8.3], 10 mM ATP, 10 mM MgOAc, 100 μM d-biotin) were enzymatically biotinylated with 150 U/μl BirA (Avidity) at room temperature overnight, followed by purification with NiNTA-agarose and SEC. Biotinylated ligands were stored at 4° C. in 150 mM NaCl, 20 mM Tris-Cl (pH 7.5), 1 mM DTT, 0.02% sodium azide.
Data were collected on an Octet RED96 (Forte Bio) and processed using the instrument's integrated software. […] Biosensors were dipped in solutions containing the analyte of interest to measure association, and transferred back to empty binding buffer for monitoring dissociation. Kinetic constants were determined from the mathematical fit of a 1:1 binding model.
Background: In BLI a coated tip is dipped into the sample, and binding shifts an interference pattern.

The next data set concerns Mcl-1-dependent MEF line. Briefly: Long-term survival (colony) assay, Mcl-1-dependent MEFs. The data set is classed as cell-based, mouse. The settings on record: seven day colony survival, doxycycline-induced expression.
Source text: as §1, §2

Data set [2] deals with Bim association with pro-survival homologs in HeLa cells. In words: Bim co-immunoprecipitation in HeLa cells. Type of data set: cell-based, human. The method, then:
Cells were harvested, washed with PBS, and extracted with ice-cold Chaps buffer (40 mM Tris-HCl, pH 7.5, 150 mM NaCl, 1 mM EDTA, 2% CHAPS, and Complete Protease Inhibitors [Roche]) for 20 minutes, on ice. Extracts were spun down at 10,000 g for 10 min and supernatants were removed and used for SDS-PAGE analysis. Expression of proteins of interest was analyzed using antibodies against Bcl-2, Bcl-xL, Mcl-1 (as above), Bfl-1 (ProsSci, Inc.), Bim (BD Biosciences), and tubulin (SigmaAldrich). For immunoprecipitation experiments, 1,000 μg protein lysates were pre-cleared and then incubated with 3 μg Bim antibody for 2 hours at 4° C., followed by addition of Protein A/G Plus agarose beads (Santa Cruz Biotechnology) and overnight incubation with rotation at 4° C. Negative control reactions used normal IgG. Immunoprecipitates were washed four times with lysis buffer and eluted with loading buffer at 95° C., 2 times for 10 min, followed by SDS-PAGE analysis.

The test system of a further data set is BCL2 family proteins. Briefly: BLI specificity across BCL2 family proteins (next tightest binder versus intended target). Details: species or system human. Conditions: fold weaker affinity for next tightest binding BCL2 family protein versus intended target.
The next data set has as its target BHRF1 (Epstein-Barr virus, UniProt P03182). Conditions: FACS sort for binding signal after 400 nM BHRF1.

T1 sequence (Q07820 172-327): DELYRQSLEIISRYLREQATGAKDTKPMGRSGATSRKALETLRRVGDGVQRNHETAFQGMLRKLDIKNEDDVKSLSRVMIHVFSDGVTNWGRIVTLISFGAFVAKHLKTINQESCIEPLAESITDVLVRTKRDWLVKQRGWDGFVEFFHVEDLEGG
Chain of BHRF1 (P03182 1-161): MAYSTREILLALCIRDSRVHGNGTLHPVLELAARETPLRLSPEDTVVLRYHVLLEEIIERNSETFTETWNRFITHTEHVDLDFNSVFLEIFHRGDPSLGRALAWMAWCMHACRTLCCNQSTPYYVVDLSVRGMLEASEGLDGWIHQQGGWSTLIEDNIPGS
Source text for BHRF1: This was reduced to 74 designs (Indexes-01 to 74) after filtering for strong interface binding energy, low monomer folding energy and a low number of buried unsatisfied hydrogen bonding atoms. Barcoded genes were synthesized (Table 3) and the library transformed in to yeast for surface display (6×10^5 transformants). […] The library was sorted by a single round of FACS for cells expressing surface protein (FIG. 1C; lane 1), for the 2% of cells with highest expression (lane 2), and for cells showing binding signal after incubation with 100 nM (lane 3) or 400 nM BHRF1 (lane 4). DNA from the naive and post-sorted populations was harvested and sequenced by Illumina deep sequencing, and the recovery of each designed sequence determined.
Binding of biotinylated protein to the yeast surface is detected with phycoerythrin-conjugated streptavidin (Invitrogen).
Yeast cells were sorted on a BD Influx cytometer operated by Spigot (BD Biosciences) and recovered in SDCAA media at 30° C. overnight. Yeast were lysed with 125 U/ml Zymolase at 37° C. for 5 h, and DNA was harvested (Zymoprep kit from Zymo Research). […] DNA was deep sequenced with a MiSeq™ sequencer (Illumina) and sequences were analyzed with adapted scripts from Enrich (Fowler et al., 2011). […]

B1: FINDI: SEQ ID NO: 6; target Bfl-1 (protein)
chain: ADPKKVLDKAKDQAENRVRELKQKLEELYKEARKLDLTQEKRKKLEVATLGAVLAAHGDILNAIMQAKEEADKLKKAGLVNSQQLDELKRRLEELKEEALRKASDYGNEFHLKRRY
As for B1, the “protein stability relative to the original computational design” value in data set [1] is on record as “slightly to moderately decreased”. The same molecule displayed a decrease in survival in the data set with Bfl-1-dependent MEF line of 85±6%. Moreover, the “decrease in RKO cell survival” value with colon cancer cell lines (long-term survival assay) stood at 63±4%.

B2: MINDI: SEQ ID NO: 2; target Mcl-1 (protein)
chain: ADPKKVLDKAKDQAENRVRELKQVLEELYKEARKLDLTQEMRKKLIERYAAAIIRAIGDINNAIYQAKQEAEKLKKAGLVNSQQLDELLRRLDELQKEASRKANEYGREFELKLEY
As for B2, in the data set with Mcl-1, the “affinity for other BCL2 family members relative to Mcl-1” value is recorded as “over ten thousand-fold weaker affinity”. The decrease in survival with Mcl-1-dependent MEF line amounted to 90±11%. Moreover, the “effect on long-term survival (in words)” value with colon cancer cell lines (colon cancer lines) is “negligible effect”. The “effect on Bim binding profile” value was “no effect” in data set [2] (Bcl-2+ HeLa cells) and “displacement of Bim from Mcl-1” in data set [2] (wild-type HeLa cells). Moreover, the Specificity in the data set with BCL2 family proteins was 93,000.

B3: Index 21: SEQ ID NO: 113; computational precursor for BbpD04 (protein)
chain: GFDWKKVLDKAKDLAENDVREAKQKLEEFYKKAMKLDLTQEMRRKLMLEWIAAMLMAIGDIFNAIEQGKQEADKLKKLGKVLSQLLDELKRRLEELKEEAALKAHDFGREFELKLLFG
modifications: optionally absent
In the case of B3, the “Log2 Enrichment Ratio: 400 nM BHRF1” value with BHRF1 is reported as “BHRF1 −2.81”.
